The values that follow come from US20200002434A1 (BIOSION, published 2020).

First the molecules themselves.
B1: 5G9.v1 humanized antibody (antibody, V domains shown)
VH: EVQLVQSGAEVKKPGSSVKVSCKTSGYTFSSYTIHWVRQAPGQGLEWIGYINPSSDYTAYNQKFRDRATLTADQSTNTAYMELSSLRSEDTAVYYCARASAFSLDFWGQGTLVTVSS
VL: DIQMTQSPSSLSASVGDRVTITCKASHDIDRYIAWYQHKPGKGPKLLIHYTSTLQPGIPSRFSGSGSGRDYTLTISSLQPEDVATYYCLNYDNLLWTFGQGTKVEIK
notes: VH.v1/VL.v1, back mutations 0/0
B2: 5G9.v11 humanized antibody (antibody, V domains shown)
VH: EVQLVQSGAEVKKPGSSVKVSCKTSGYTFSSYTIHWVRQAPGQGLEWIGYINPSSDYTAYNQKFRDRATLTADQSTSTAYMELSSLRSEDTAVYYCARASAFSLDFWGQGTLVTVSS
VL: DIQMTQSPSSLSASVGDRVTITCKASHDIDRYIAWYQHKPGKGPKLLIHYTSTLQPGIPSRFSGSGSGRDYTLTISSLQPEDVATYYCLNYDNLLWTFGQGTKVEIK
notes: VH.4/VL.v1, back mutations N76S/0
B3: 5G9.v9 humanized antibody (antibody, V domains shown)
VH: EVQLVQSGAEVKKPGSSVKVSCKTSGYTFSSYTIHWVRQAPGQGLEWIGYINPSSDYTAYNQKFRDRATITADQSTNTAYMELSSLRSEDTAVYYCARASAFSLDFWGQGTLVTVSS
VL: DIQMTQSPSSLSASVGDRVTITCKASHDIDRYIAWYQHKPGKGPKLLIHYTSTLQPGIPSRFSGSGSGRDYTLTISSLQPEDVATYYCLNYDNLLWTFGQGTKVEIK
notes: VH.2/VL.v1, back mutations L69I/0
B4: 5G9.v10 humanized antibody (antibody, V domains shown)
VH: EVQLVQSGAEVKKPGSSVKVSCKTSGYTFSSYTIHWVRQAPGQGLEWIGYINPSSDYTAYNQKFRDRATLTADKSTNTAYMELSSLRSEDTAVYYCARASAFSLDFWGQGTLVTVSS
VL: DIQMTQSPSSLSASVGDRVTITCKASHDIDRYIAWYQHKPGKGPKLLIHYTSTLQPGIPSRFSGSGSGRDYTLTISSLQPEDVATYYCLNYDNLLWTFGQGTKVEIK
notes: VH.3/VL.v1, back mutations Q73K/0
B5: 5G9.v3 humanized antibody (antibody, V domains shown)
VH: EVQLVQSGAEVKKPGSSVKVSCKTSGYTFSSYTIHWVRQAPGQGLEWIGYINPSSDYTAYNQKFRDRATLTADQSTNTAYMELSSLRSEDTAVYYCARASAFSLDFWGQGTLVTVSS
VL: DIQMTQSPSSLSASVGDRVTITCKASHDIDRYIAWYQHKPGKVPKLLIHYTSTLQPGIPSRFSGSGSGRDYTLTISSLQPEDVATYYCLNYDNLLWTFGQGTKVEIK
notes: VH.v1/VL.2, back mutations 0/G43V
B6: 5G9.v7 humanized antibody (antibody, V domains shown)
VH: EVQLVQSGAEVKKPGSSVKVSCKTSGYTFSSYTIHWVRQAPGQGLEWIGYINPSSDYTAYNQKFRDRATLTADQSTNTAYMELSSLRSEDTAVYYCARASAFSLDFWGQGTLVTVSS
VL: DIQMTQSPSSLSASVGDRVTITCKASHDIDRYIAWYQHKPGKGPKLLIHYTSTLQPGIPSRFSGSGSGRDFTLTISSLQPEDVATYYCLNYDNLLWTFGQGTKVEIK
notes: VH.v1/VL.6, back mutations 0/Y71F
B7: 5G9.v5 humanized antibody (antibody, V domains shown)
VH: EVQLVQSGAEVKKPGSSVKVSCKTSGYTFSSYTIHWVRQAPGQGLEWIGYINPSSDYTAYNQKFRDRATLTADQSTNTAYMELSSLRSEDTAVYYCARASAFSLDFWGQGTLVTVSS
VL: DIQMTQSPSSLSASVGDRVTITCKASHDIDRYIAWYQHKPGKGPKLLIHYTSTLQPGVPSRFSGSGSGRDYTLTISSLQPEDVATYYCLNYDNLLWTFGQGTKVEIK
notes: VH.v1/VL.4, back mutations 0/I58V
B8: 5G9.v8 humanized antibody (antibody, V domains shown)
VH: EVQLVQSGAEVKKPGSSVKVSCKTSGYTFSSYTIHWVRQAPGQGLEWIGYINPSSDYTAYNQKFRDRVTLTADQSTNTAYMELSSLRSEDTAVYYCARASAFSLDFWGQGTLVTVSS
VL: DIQMTQSPSSLSASVGDRVTITCKASHDIDRYIAWYQHKPGKGPKLLIHYTSTLQPGIPSRFSGSGSGRDYTLTISSLQPEDVATYYCLNYDNLLWTFGQGTKVEIK
notes: VH.1/VL.v1, back mutations A67V/0
B9: 5G9.v2 humanized antibody (antibody, V domains shown)
VH: EVQLVQSGAEVKKPGSSVKVSCKTSGYTFSSYTIHWVRQAPGQGLEWIGYINPSSDYTAYNQKFRDRATLTADQSTNTAYMELSSLRSEDTAVYYCARASAFSLDFWGQGTLVTVSS
VL: DIQMTQSPSSLSASVGDRVTITCKASHDIDRYIAWYQQKPGKGPKLLIHYTSTLQPGIPSRFSGSGSGRDYTLTISSLQPEDVATYYCLNYDNLLWTFGQGTKVEIK
notes: VH.v1/VL.1, back mutations 0/H38Q
B10: 5G9.v12 humanized antibody (antibody, V domains shown)
VH: EVQLVQSGAEVKKPGSSVKVSCKTSGYTFSSYTIHWVRQAPGQGLEWMGYINPSSDYTAYNQKFRDRATLTADQSTNTAYMELSSLRSEDTAVYYCARASAFSLDFWGQGTLVTVSS
VL: DIQMTQSPSSLSASVGDRVTITCKASHDIDRYIAWYQHKPGKGPKLLIHYTSTLQPGIPSRFSGSGSGRDYTLTISSLQPEDVATYYCLNYDNLLWTFGQGTKVEIK
notes: VH.5/VL.v1, back mutations I48M/0
B11: 5G9.v4 humanized antibody (antibody, V domains shown)
VH: EVQLVQSGAEVKKPGSSVKVSCKTSGYTFSSYTIHWVRQAPGQGLEWIGYINPSSDYTAYNQKFRDRATLTADQSTNTAYMELSSLRSEDTAVYYCARASAFSLDFWGQGTLVTVSS
VL: DIQMTQSPSSLSASVGDRVTITCKASHDIDRYIAWYQHKPGKGPKLLIYYTSTLQPGIPSRFSGSGSGRDYTLTISSLQPEDVATYYCLNYDNLLWTFGQGTKVEIK
notes: VH.v1/VL.3, back mutations 0/H49Y
B12: 5G9.v6 humanized antibody (antibody, V domains shown)
VH: EVQLVQSGAEVKKPGSSVKVSCKTSGYTFSSYTIHWVRQAPGQGLEWIGYINPSSDYTAYNQKFRDRATLTADQSTNTAYMELSSLRSEDTAVYYCARASAFSLDFWGQGTLVTVSS
VL: DIQMTQSPSSLSASVGDRVTITCKASHDIDRYIAWYQHKPGKGPKLLIHYTSTLQPGIPSRFSGSGSGTDYTLTISSLQPEDVATYYCLNYDNLLWTFGQGTKVEIK
notes: VH.v1/VL.5, back mutations 0/R69T
B13: 5F12.v2 humanized antibody (antibody, V domains shown)
VH: EVQLVQSGAEVKKPGSSVKVSCKASGYTFTSYTMHWIRQAPGQGLEWIGYINPSSSYTNYNQNFKDRATLTADKSTSTAYMELSSLRSEDTAVYYCARASSYSLDYWGQGTLVTVSS
VL: DIQMTQSPSSLSASVGDRVTITCKASQDINKYIAWYQQKPGKGPKLLIHSTSTLYPGIPSRFSGSGSGKDYTFTISSLQPEDIATYYCLQYDNLLWTFGQGTKVEIK
notes: as for B9
B14: 5F12.v8 humanized antibody (antibody, V domains shown)
VH: EVQLVQSGAEVKKPGSSVKVSCKASGYTFTSYTMHWVRQAPGQGLEWIGYINPSSSYTNYNQNFKDRATLTADKSTSTAYMELSSLRSEDTAVYYCARASSYSLDYWGQGTLVTVSS
VL: DIQMTQSPSSLSASVGDRVTITCKASQDINKYIAWYQHKPGKGPKLLIHSTSTLYPGIPSRFSGSGSGKDYTFTISSLQPEDIATYYCLQYDNLLWTFGQGTKVEIK
notes: VH.1/VL.v1, back mutations I37V/0
B15: 5F12.v5 humanized antibody (antibody, V domains shown)
VH: EVQLVQSGAEVKKPGSSVKVSCKASGYTFTSYTMHWIRQAPGQGLEWIGYINPSSSYTNYNQNFKDRATLTADKSTSTAYMELSSLRSEDTAVYYCARASSYSLDYWGQGTLVTVSS
VL: DIQMTQSPSSLSASVGDRVTITCKASQDINKYIAWYQHKPGKGPKLLIHSTSTLYPGVPSRFSGSGSGKDYTFTISSLQPEDIATYYCLQYDNLLWTFGQGTKVEIK
notes: as for B7
B16: 5F12.v9 humanized antibody (antibody, V domains shown)
VH: EVQLVQSGAEVKKPGSSVKVSCKASGYTFTSYTMHWIRQAPGQGLEWMGYINPSSSYTNYNQNFKDRATLTADKSTSTAYMELSSLRSEDTAVYYCARASSYSLDYWGQGTLVTVSS
VL: DIQMTQSPSSLSASVGDRVTITCKASQDINKYIAWYQHKPGKGPKLLIHSTSTLYPGIPSRFSGSGSGKDYTFTISSLQPEDIATYYCLQYDNLLWTFGQGTKVEIK
notes: VH.2/VL.v1, back mutations I48M/0
B17: 5F12.v6 humanized antibody (antibody, V domains shown)
VH: EVQLVQSGAEVKKPGSSVKVSCKASGYTFTSYTMHWIRQAPGQGLEWIGYINPSSSYTNYNQNFKDRATLTADKSTSTAYMELSSLRSEDTAVYYCARASSYSLDYWGQGTLVTVSS
VL: DIQMTQSPSSLSASVGDRVTITCKASQDINKYIAWYQHKPGKGPKLLIHSTSTLYPGIPSRFSGSGSGTDYTFTISSLQPEDIATYYCLQYDNLLWTFGQGTKVEIK
notes: VH.v1/VL.5, back mutations 0/K69T
B18: 5F12.v10 humanized antibody (antibody, V domains shown)
VH: EVQLVQSGAEVKKPGSSVKVSCKASGYTFTSYTMHWIRQAPGQGLEWIGYINPSSSYTNYNQNFKDRVTLTADKSTSTAYMELSSLRSEDTAVYYCARASSYSLDYWGQGTLVTVSS
VL: DIQMTQSPSSLSASVGDRVTITCKASQDINKYIAWYQHKPGKGPKLLIHSTSTLYPGIPSRFSGSGSGKDYTFTISSLQPEDIATYYCLQYDNLLWTFGQGTKVEIK
notes: VH.3/VL.v1, back mutations A67V/0
B19: 5F12.v3 humanized antibody (antibody, V domains shown)
VH: EVQLVQSGAEVKKPGSSVKVSCKASGYTFTSYTMHWIRQAPGQGLEWIGYINPSSSYTNYNQNFKDRATLTADKSTSTAYMELSSLRSEDTAVYYCARASSYSLDYWGQGTLVTVSS
VL: DIQMTQSPSSLSASVGDRVTITCKASQDINKYIAWYQHKPGKAPKLLIHSTSTLYPGIPSRFSGSGSGKDYTFTISSLQPEDIATYYCLQYDNLLWTFGQGTKVEIK
notes: VH.v1/VL.2, back mutations 0/G43A
B20: 5F12.v11 humanized antibody (antibody, V domains shown)
VH: EVQLVQSGAEVKKPGSSVKVSCKASGYTFTSYTMHWIRQAPGQGLEWIGYINPSSSYTNYNQNFKDRATITADKSTSTAYMELSSLRSEDTAVYYCARASSYSLDYWGQGTLVTVSS
VL: DIQMTQSPSSLSASVGDRVTITCKASQDINKYIAWYQHKPGKGPKLLIHSTSTLYPGIPSRFSGSGSGKDYTFTISSLQPEDIATYYCLQYDNLLWTFGQGTKVEIK
notes: VH.4/VL.v1, back mutations L69I/0
B21: 5F12.v7 humanized antibody (antibody, V domains shown)
VH: EVQLVQSGAEVKKPGSSVKVSCKASGYTFTSYTMHWIRQAPGQGLEWIGYINPSSSYTNYNQNFKDRATLTADKSTSTAYMELSSLRSEDTAVYYCARASSYSLDYWGQGTLVTVSS
VL: DIQMTQSPSSLSASVGDRVTITCKASQDINKYIAWYQHKPGKGPKLLIHSTSTLYPGIPSRFSGSGSGKDFTFTISSLQPEDIATYYCLQYDNLLWTFGQGTKVEIK
notes: as for B6

One experiment deals with T1, recombinant human ErbB2 extracellular domain (ErbB2-ECD) (human, UniProt P04626 23-652).
T1 construct: extracellular domain; Coated on plates or used biotin-labeled in solution (capture ELISA); also called Human ErbB2-ECD; rhErbB2
Briefly: capture ELISA, recombinant ErbB2-ECD. Background: An ELISA detects its analyte on a solid surface through an enzyme-linked reagent.
Turning to B1, the EC50 stood at 0.031 nM.

On to B2, for which the EC50 is 0.081 nM.

With B3, the EC50 is 0.054 nM.

B4: the half-maximal effective concentration (EC50) was found to be 0.029 nM.

Regarding B5, the EC50 was determined as 0.023 nM.

For B6, the EC50 stood at 0.053 nM.

With B7, the EC50 is 0.013 nM.

As to B8, the concentration giving a half-maximal response (EC50) was 0.165 nM.

Turning to B9, the concentration for a half-maximal effect (EC50) stood at 0.062 nM.

Turning to B10, the EC50 worked out at 0.029 nM.

For the molecule B11, the EC50 is 0.072 nM.

As to B12, the EC50 amounted to 0.044 nM.

The target in another experiment is T1, recombinant human ErbB2 extracellular …. The experiment is described as follows: capture ELISA, recombinant ErbB2-ECD. The source holds these as a separate data set.
For B13, the EC50 is 0.034 nM.

Take B14: the EC50 was 0.018 nM.

Take B15: the EC50 is 0.028 nM.

Consider B16, for which the EC50 came out at 0.023 nM.

Consider B17, for which the EC50 amounted to 0.032 nM.

Consider B18, for which the EC50 worked out at 0.032 nM.

As for B19, the 50% effective concentration (EC50) came out at 0.026 nM.

Turning to B20, the EC50 was determined as 0.028 nM.

Regarding B21, the EC50 turned out to be 0.152 nM.

By EC50 is commonly meant the concentration that produces a half-maximal response.
